According to publication PMC5424706 (Molecular cell, 2017):

T1: PhoP-HA protein, purified (Salmonella enterica serovar Typhimurium …, UniProt D0ZV90 1-224)
T1 sequence: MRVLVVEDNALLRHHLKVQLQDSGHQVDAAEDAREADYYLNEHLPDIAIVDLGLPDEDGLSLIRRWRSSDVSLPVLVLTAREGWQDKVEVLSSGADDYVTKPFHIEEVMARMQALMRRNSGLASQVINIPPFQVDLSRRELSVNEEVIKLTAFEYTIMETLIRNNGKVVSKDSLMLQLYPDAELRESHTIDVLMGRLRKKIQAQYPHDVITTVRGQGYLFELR

B1: MgtC-FLAG, in vitro synthesized (natural protein)
chain: MEERMLMFPYILNLLAAMLLGALIGAERQWRQRMAGLRTNALVATGAAVFILSSMTTSPDSPGRIAAQIVSGIGFLGAGVIMREGMNVRGLNTAATLWCSAGIGVLCGLGQFKNALAATIIILCANILLREAAQRINQLPISAEGEKRYILKVTCNKEDESAVRQWLLNIVKEAAICLQGLGSVPAQEQGYKEIRAELVGHADYRKTRELIISRIGDNDNITAIHWSIDSQ

Experiments:
[1] = target: PhoP-HA protein, purified (Salmonella enterica serovar Typhimurium (strain 14028s)) (UniProt D0ZV90); test: pull-down
[2] = target: T1, PhoP-HA protein, purified; test: pull-down

Row | Molecule | IC50 [1] [µM] | IC50 [2] [µM]
1 | ClpS-FLAG, in vitro synthesized (natural protein) | 14.6 | 
2 | B1 |  | 8.4
